The chains are these.
B1: TPR t1 (parent)
chain: GACCAAUCUGCCCUCAGAGCUCGAGAACAUCUUCGGAUGCAGAGGAGGCAGGCUUCGGUGGCGCGAUAGCGCCAACGUCCUCAACCUCCAAUGCAUCCCACCACAUGAUGAUGCCUGAAGAGCCUUGGUUUUUUG

In the data set the parent is B1. Description: polymerase ribozyme fitness, log enrichment relative to wild type (log ratio); higher = more active; in vitro selection for triplet polymerase activity. The gist of the method:
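To select mutant libraries of each subunit of a heterodimeric triplet polymerase ribozyme, built by PCR and transcribed, each was annealed with a biotinylated primer, partner subunit and triplets, then incubated frozen at −7 °C. Extended constructs were gel-excised, captured on streptavidin beads and amplified by RT-PCR, in one round carried out in triplicate. Illumina sequencing of input and output libraries kept genotypes with ≥10 input reads and ≥1 read per output. Fitness is the base-2 logarithm of genotype enrichment relative to wild-type enrichment, from inverse-variance-weighted replicate averages.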
In the case of GACCAAUCUGCCGUCAGAGCUCGAGAACAUCUUCGGAUGCAGAGGAGGCAGGGUUCGGCGGCGCGAUAGCGCCAACGUCCUCAACCUCCAAUGCAUCCCACCACAUGAUGAUGCCUGAAGAGCCUUGGUUUUGUG [C13G C53G U59C U133G], the “polymerase ribozyme fitness (log ratio)” value is -1.68.
Then GACCAAUCUGCCGUCACAGCUCGAGAACAUCUUCGGAUGCAGAGGAGGCAGGCUUCGGUGGCGCGAUAGCGCCAACGUCCUCAACCUCCAAUGCAUCCCACCACAUGAUGAUGCCUGAAGAGCCUUGGUUUUUUG [C13G G17C], with -4.94.
Then GACCAAUCUGCCGUCAGAGCUCGAGAACAUCUUCGGAUGCAGAGGAGGCAGGCUUCGGUGGUGCGAUAGCGCCAACGUCCACAACCUCCAAUGUAUCCCAUCACAUGAUGAUGCCUGAAGAGCCUUGGUUUUUUG [C13G C62U U81A C94U C101U], with -3.12; and GACCAAUCUGCCGUCAGAGCUCGAGAACAUCUUUGGAUGCAGAGGAGGCAGGCUUCGGUGGCGCGAUAGCGCCAACGUCCUCAACCUCCAAUGCAUCCCACCACAUGAUGAUGCCUGAAGAGCCUUGGUUUUUUG [C13G C34U], with -6.06; and GACCAAUCUGCCGUCAGAGCUCGAGAACAUCUUCGCAUGUAGAGGAGGCAGGCUUCGGUGGCGCGAUAGCGCCAACGUCCUCAACCUCCAAUGCAUCCCACCACAUGAUGAUGCCUGAAGAGCCUUGGUUUUUUG [C13G G36C C40U], with -2.55.
Regarding GACCAAUCUGCCGUCAGAGCUCGAGAACAUCUUCGGAUGCAGAGGAGGCAGGCUUCGGUGGCGCGAUAGCGCCAACGUCCUUAACCUCCAAUGCAUCCCACCACAUGAUGAUGCCUGAAGAGCCUUGGUUAUUUG [C13G C82U U131A], the “polymerase ribozyme fitness (log ratio)” value is -2.89.
In the case of GACCAAUCUGCCGUCAGAGCUCGAGAACAUCUUCGGAUGCAGAGGAGGCAGGCUUCGGUGGGGCGUUAGCGCCAACGUCCUCAACCUCCAAUGCAUCCCACCACAUGAUGAUUCCUGAAGAGCCUUGGUUUUUUG [C13G C62G A66U G113U], the “polymerase ribozyme fitness (log ratio)” value was -7.31.
Then GACCAAUCUGCCGUCAGAGCUCGAGAACAUCUUCGGAUGCAGAGGAGGCAGGCUUCGGUGGCGCGAUAGCGCCAACGUCCUCAACCUCCAAUGCAUCCCAUCACAUGAUGAUGCCUGAAGAGCCUUGGUUUUUUG [C13G C101U], with -2.08; and GACCAAUCUGCCGUCAGAGCUCGAGAACAUCUUCGGAUGCAGAGGAGGCAGGCUUCGGUGGCGCGAUAGAGCCAACGUCCUCAACCUCCAAUGCAUCCCACCACAUGAUGAUGCCUGAAGAGCCUUGGUUUUUUG [C13G C70A], with -2.2.
Take GACCAAUCUGCCGUCAAAGCUCGAGAACAUCUUCGGAUGCAGAGGAGGCAGGCUUCGGUGGCGCGAUAGCGCCAACGUCCUCAACCUCCAAUGCAUCCCACCACAUGAUGAUGCUUGAAGAGCCUUGGUUUUUUG [C13G G17A C115U]: the “polymerase ribozyme fitness (log ratio)” value is -1.42.
Consider GACCAAUCUGCCGUCAGAGCUCGAGAACAUCUUCGGAUGCAGAGGAGGCAGGCUUAGGUGGCACGAUAGCGCCAACGUCCUCAACCUCCAAUGCAUCCCACCACAUGAUGAUGCCUGAAGAGCCUUGGUUUUUUG [C13G C56A G63A], for which the “polymerase ribozyme fitness (log ratio)” value was -3.78.
Then GACCAAUCUGCCGUCAGAGCUCGAGAACAUCUUCGGAUGUAGAGGAGGAAGGCUUCGGUGGCGAGAUAGCGCCAACGUCCUCAACCUCCAAUGCAUCCCCCCACAUGAUGAUGCUUGAAGAGCCUUGGUUUUUUG [C13G C40U C49A C64A A100C C115U], with -6.9; and GACCAAUCUGCCGUCAGAGCUCGAGAACAUCUUCCGAUGCAGAGGAGGCAGGCUUCGGUGGCGUGAUAGCGCCAACGUCCUCAACCUCCGAUACAUACCACCACAUGAUGAUGCCUGAAGAGCAUUGGUUUUUUG [C13G G35C C64U A90G G93A C97A C124A], with -5.83.
Then GACCAAUCUGCCGUCAGAGCUCGAGAACAUCUUCGAAUGGAGAGGAGGCAGGCUUCGGUGGCGCGAUAGCGCCAACGUCCUCAACCUCCAAUGCAUCCCACCACAUGAUGAUGCCUGAAGAGCCUUGGUUUUUUG [C13G G36A C40G], with -4.55; and GACCAAUCUGCCGUCAGAGCUCGAGAACAUCUUCGGAUGCAGAGGAGGCAGGCUUCGGUGGCGCGAUAGCGACAACGGCCUCAACCUCCAAUGCAUCCCACCACAUGAUGAUGCCUGAAGAGCCUUGGUUUUUUG [C13G C72A U78G], with -2.9.
Then GACCAAUCUGCCGUCAGAGCUCGAGAACAUCUUCGGAUGCAGAGGAGGCAGGCUUCGGUGGCGCGAUAGCGCCAACGUCAUGAACCUCCAAUGCAUCCCACCACAUGAUGAUGCCUGAAGAGCCUUGGUCUUUUG [C13G C80A C82G U130C], with -4.35; and GACCAAUCUGCCGUCAGAGCUCGAGAACAUCUUCUGAUGCAGAGGAGGCAGGCUUCGGUGUCGCGAUAGCGCCAACGUCCUCAACCUCCAAUGCAUCCCACUACAUGAUGAUGCCUGAAGAGCCUUGGUUUUUUG [C13G G35U G61U C102U], with -6.42; and GACCAAUCUGCCGUCAGACCUCGAGAACAUCUUCGGAUGCAGAGGAGGCAGGCUUCGGUGUCGCGAUAGCGCCAACGUCCUCAACCUUCAAUGCAUCCCACCACAUGAUGAUGCCUGAAGAGCCUUGGUUUUUUG [C13G G19C G61U C88U], with -4.01.
As for GACCAAUCUGCCGUCAGAGCUCGAGAACAUCUUCGGAUGCAGAGGAGGCAGGCUUCGGUGGAGCGAUAGCGCCAACGUCCUCAACCUCCAAUGCAUCCCACCACAUGAUGAUGCCUGAAGAGCAUUGGUUUUUUG [C13G C62A C124A], the “polymerase ribozyme fitness (log ratio)” value was determined as 0.6.
With GACCAAUCUGCCGUCAGAGCUCGAGAACAUCUUCGGAUGCAGAGGAGGCAGGCUUGGGUGGCGCGAUACCGCCAACGUCCUCAACCUCAAAUGCAUCCCACCACAUGAUGAUGCCUUAAGAGCCUUGGUUUUUUG [C13G C56G G69C C89A G117U], the “polymerase ribozyme fitness (log ratio)” value was -6.43.
Then GACCAAUCUGCCGUCAGAGCUCGAGAACAUCUUCGGAUGCAGAGGAGGCAGGCUUCGGUGGUGCGAUAGCGCCAACGUCCUCAACCUCCAAUGCAUCCCACCACAUGAUGAUGCCUGAAGAGCCUUGGUUUUUUG [C13G C62U], with -1.43.

The record behind these values is the RNAGym collection of RNA variant scans (doi:10.1073/pnas.2313332121).
